Measured values from patent US6750197B1, “Activators of endothelial nitric oxide synthase” (Rensselaer Polytechnic Institute, priority 1996, dated 2004).

Key:
[1] = target: NNOS (Rattus norvegicus, UniProt P29476); assay: CAM binding: radiolabeled CAM trapped on a membrane by NNOS adhesion; conditions: no peptide: 774 ± 40
Experimental: (§1) JX series polypeptides are approximately 30-mers derived from ENOS and NNOS inhibitory polypeptides. B058 series are shorter (6-mers to 15-mers) peptides derived from flanking loops or from shorter segments of inhibitory polypeptides. CAM binding data represents counts from radiolabeled CAM trapped on a membrane by NNOS adhesion. INOS activity was assayed by measuring oxidation of ferrous myoglobin by product NO.

[2] = target: INOS (Rattus norvegicus, UniProt Q06518); assay: INOS activity by oxidation of ferrous myoglobin by product NO; format: biochemical; design: unit not given here; conditions: for INOS Activity 0.1 mg/ml: peptide 0.1 mg/ml, no peptide: 14.9 ± .56; for INOS activity 0.3 mg/ml: peptide 0.3 mg/ml, no peptide: 12.3 ± .19; for INOS Activity 1.0 mg/ml: peptide 1.0 mg/ml, no peptide: 13.0 ± .23
Experimental: as §1

[3] = tested on: NOS; assay: Radioligand binding of [125I]-calmodulin to NOS; design: scale not given here; conditions: ligand 1 nM, 15 minutes at 23° C., mean ± SEM
Experimental: (§2) NOS activity measurements were performed using recombinant rat NNOS (purified from overexpressing HEK293 cells), recombinant bovine ENOS (purified from overexpressing E. coli) or native INOS (from immunostimulant-activated rat aortic smooth muscle cells). Activity was determined with 1-20 pmole of NOS using a kinetic 96-well microtiter plate assay based on the kinetics of NADPH consumption (NNOS and ENOS) or Fe^2+-myoglobin oxidation. Radioligand binding was performed after incubation of 1-2 pmole of NOS for 15 minutes at 23° C. with either Bolton-Hunter labelled [125I]-calmodulin (1 nM) or [3H]-N-nitro-L-arginine (200 pM) and the indicated peptides. Values are means ±SEM of triplicate determinations.

[4] = target: T1, recombinant rat NNOS (Rattus norvegicus, UniProt P29476); assay: NOS activity, kinetic 96-well microtiter plate assay, NADPH consumption; format: biochemical; conditions: mean ± SEM, triplicate
T1 construct: made in house; host or cells: HEK293 cells
T1 sequence (P29476 whole entry): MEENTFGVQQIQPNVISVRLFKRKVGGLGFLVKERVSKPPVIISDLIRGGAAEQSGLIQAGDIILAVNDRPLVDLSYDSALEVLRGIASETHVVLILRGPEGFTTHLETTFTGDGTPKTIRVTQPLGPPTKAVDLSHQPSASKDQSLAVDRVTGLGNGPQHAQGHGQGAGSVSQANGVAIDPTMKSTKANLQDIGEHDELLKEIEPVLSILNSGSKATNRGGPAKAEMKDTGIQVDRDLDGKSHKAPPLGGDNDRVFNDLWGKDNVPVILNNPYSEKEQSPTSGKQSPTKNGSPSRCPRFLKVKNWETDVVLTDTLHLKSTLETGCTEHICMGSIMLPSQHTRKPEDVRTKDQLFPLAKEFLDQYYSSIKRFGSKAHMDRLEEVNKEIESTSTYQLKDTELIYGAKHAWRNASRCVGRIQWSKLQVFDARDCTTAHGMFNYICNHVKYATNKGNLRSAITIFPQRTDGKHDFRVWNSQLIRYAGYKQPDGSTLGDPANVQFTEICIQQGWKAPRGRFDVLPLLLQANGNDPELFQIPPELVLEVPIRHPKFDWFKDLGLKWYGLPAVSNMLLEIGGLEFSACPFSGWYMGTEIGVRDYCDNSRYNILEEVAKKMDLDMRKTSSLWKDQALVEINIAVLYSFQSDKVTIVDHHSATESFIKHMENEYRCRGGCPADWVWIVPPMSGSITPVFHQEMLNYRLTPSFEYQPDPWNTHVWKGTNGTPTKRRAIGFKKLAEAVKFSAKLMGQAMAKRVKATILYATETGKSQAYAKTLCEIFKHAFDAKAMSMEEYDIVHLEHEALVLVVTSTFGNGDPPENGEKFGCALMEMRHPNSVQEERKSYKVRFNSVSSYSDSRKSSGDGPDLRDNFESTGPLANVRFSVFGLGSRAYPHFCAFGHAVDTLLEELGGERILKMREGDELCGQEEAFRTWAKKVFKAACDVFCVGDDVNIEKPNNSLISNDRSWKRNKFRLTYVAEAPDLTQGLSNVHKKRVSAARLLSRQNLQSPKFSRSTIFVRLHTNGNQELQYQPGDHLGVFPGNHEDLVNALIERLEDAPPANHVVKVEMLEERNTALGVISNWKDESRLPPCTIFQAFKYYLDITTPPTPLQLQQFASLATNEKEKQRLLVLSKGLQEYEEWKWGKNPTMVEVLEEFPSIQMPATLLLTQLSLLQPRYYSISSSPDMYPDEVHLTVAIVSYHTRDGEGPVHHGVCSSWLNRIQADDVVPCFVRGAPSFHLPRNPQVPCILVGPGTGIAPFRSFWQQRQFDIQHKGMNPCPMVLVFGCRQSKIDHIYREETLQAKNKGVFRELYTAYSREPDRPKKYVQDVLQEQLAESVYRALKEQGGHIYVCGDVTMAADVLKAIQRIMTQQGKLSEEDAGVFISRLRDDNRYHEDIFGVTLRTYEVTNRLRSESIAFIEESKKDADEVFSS
Experimental: as §2

[5] = target: T2, recombinant bovine ENOS (Bos taurus, UniProt P29473); assay: as above; format: biochemical; conditions: mean ± SEM, triplicate
T2 construct: made in house; host or cells: E. coli
T2 sequence (P29473 1-1205): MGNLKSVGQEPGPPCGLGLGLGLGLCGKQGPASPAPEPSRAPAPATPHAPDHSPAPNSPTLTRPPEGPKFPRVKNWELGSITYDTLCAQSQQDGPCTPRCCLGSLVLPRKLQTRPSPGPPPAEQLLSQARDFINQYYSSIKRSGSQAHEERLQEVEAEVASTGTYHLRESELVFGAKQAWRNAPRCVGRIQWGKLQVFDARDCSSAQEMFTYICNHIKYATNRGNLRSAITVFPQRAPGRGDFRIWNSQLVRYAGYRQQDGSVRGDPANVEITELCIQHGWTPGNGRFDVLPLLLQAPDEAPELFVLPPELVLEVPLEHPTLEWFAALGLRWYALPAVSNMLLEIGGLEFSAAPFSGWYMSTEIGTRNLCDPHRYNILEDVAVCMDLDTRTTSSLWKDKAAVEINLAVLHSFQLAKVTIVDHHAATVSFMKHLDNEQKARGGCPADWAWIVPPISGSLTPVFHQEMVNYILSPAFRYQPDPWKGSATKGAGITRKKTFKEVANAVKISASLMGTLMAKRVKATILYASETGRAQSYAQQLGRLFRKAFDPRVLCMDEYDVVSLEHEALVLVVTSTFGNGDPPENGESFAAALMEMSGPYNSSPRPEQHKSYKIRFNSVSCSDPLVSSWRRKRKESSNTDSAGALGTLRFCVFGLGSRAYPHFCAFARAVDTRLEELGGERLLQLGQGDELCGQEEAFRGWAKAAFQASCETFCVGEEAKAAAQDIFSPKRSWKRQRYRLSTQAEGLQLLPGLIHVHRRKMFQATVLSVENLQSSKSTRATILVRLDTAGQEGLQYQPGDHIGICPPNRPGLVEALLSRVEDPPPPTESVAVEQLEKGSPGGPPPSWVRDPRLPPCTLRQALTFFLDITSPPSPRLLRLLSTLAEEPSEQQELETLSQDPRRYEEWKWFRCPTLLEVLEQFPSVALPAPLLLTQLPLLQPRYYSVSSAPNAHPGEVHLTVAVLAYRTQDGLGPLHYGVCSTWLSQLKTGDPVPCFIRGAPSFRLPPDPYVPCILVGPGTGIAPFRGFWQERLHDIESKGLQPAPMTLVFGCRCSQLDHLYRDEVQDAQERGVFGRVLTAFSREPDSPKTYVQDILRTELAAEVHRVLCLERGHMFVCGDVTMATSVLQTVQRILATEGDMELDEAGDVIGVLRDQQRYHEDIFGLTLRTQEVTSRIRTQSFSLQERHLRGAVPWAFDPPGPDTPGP
Experimental: as §2

[6] = target: T3, native INOS (from immunostimulant-activated rat aortic smooth muscle cells) (Rattus norvegicus, UniProt Q06518); assay: NOS activity, kinetic 96-well microtiter plate assay, Fe2+-myoglobin oxidation; format: biochemical; conditions: mean ± SEM, triplicate
T3 construct: endogenous in cells
Experimental: as §2

[7] = tested on: NOS; assay: Radioligand binding of [3H]-N-nitro-L-arginine to NOS; design: scale not given here; conditions: ligand 200 pM, 15 minutes at 23° C., mean ± SEM
Experimental: as §2

Sequence of NNOS (P29476 whole entry): as the sequence (P29476 whole entry) above

Row | Substance | NNOS CAM Binding [1] | INOS Activity 0.1 mg/ml [2] | INOS activity 0.3 mg/ml [2] | Ligand binding to NOS [125I]-CAM ([3]; peptide 100 μg/ml) | NOS Activity (% of control) NNOS ([4]; peptide 100 μg/ml) | NOS Activity (% of control) ENOS ([5]; peptide 100 μg/ml) | NOS Activity (% of control) INOS ([6]; peptide 100 μg/ml) | Ligand binding to NOS [3H]-NHA ([7]; peptide 100 μg/ml) | Ligand binding to NOS [125I]-CAM ([3]; peptide 300 μg/ml) | NOS Activity (% of control) NNOS ([4]; peptide 300 μg/ml) | NOS Activity (% of control) ENOS ([5]; peptide 300 μg/ml) | NOS Activity (% of control) INOS ([6]; peptide 300 μg/ml) | Ligand binding to NOS [3H]-NHA ([7]; peptide 300 μg/ml) | INOS Activity 1.0 mg/ml [2]
1 | AVDTLLEELGGERT [BO58-02, 22] | 953 ± 80 counts | 15.1 ± .03 |  |  |  |  |  |  |  |  |  |  |  | 
2 | AVDTRLEELGGERT [BO58-01, 35] | 986 ± 58 counts | 15.0 ± .73 |  |  |  |  |  |  |  |  |  |  |  | 
3 | DDVVSLEHET [BO58-04, 24] | 903 ± 57 counts | 15.8 ± .73 | 14.9 ± .56 |  |  |  |  |  |  |  |  |  |  | 
4 | DIDQKLSHLGASQT [BO58-03, 23] | 863 ± 19 counts | 14.4 ± .27 |  |  |  |  |  |  |  |  |  |  |  | 
5 | DIVHLEHES [BO58-05, 25] | 952 ± 52 counts | 14.6 ± .03 |  |  |  |  |  |  |  |  |  |  |  | 
6 | KASTLEEEQ [BO58-06, 26] | 951 ± 100 counts | 15.3 ± .32 |  |  |  |  |  |  |  |  |  |  |  | 
7 | QEERKSYKVRF [BO58-09, 16] | 686 ± 43 counts | 14.7 ± .28 |  | 82.7 ± 1.1 | 102.0 ± 2.1 % of control | 93.6 ± 2.3 % of control | 101.1 ± 3.7 % of control | 118.9 ± 4.1 |  |  |  |  |  | 
8 | QEERKSYKVRFNSVSSYSDSQKSSGDGPDL [JX4, 19] | 659 ± 41 counts | 14.1 ± .57 | 10.4 ± .57 |  |  |  |  |  | 82.7 ± 1.1 | 103.0 ± 1.3 % of control | 80.2 ± 3.8 % of control | 84.1 ± 3.5 % of control | 95.7 ± 4.7 | 8.4 ± .57
9 | QHKSYKIRFNSVSCSDPLVSSWRRKRKE [JX3, 15] | 674 ± 100 counts | 12.9 ± .32 | 7.9 ± .11 |  |  |  |  |  | 0.0 ± 4.8 | 28.2 ± 0.9 % of control | 40.2 ± 4.0 % of control | 64.3 ± 3.2 % of control | 122.4 ± 1.0 | 2.9 ± .32
10 | RPEQHKSYKIRF [BO58-10, 17] | 1339 ± 49 counts | 14.6 ± .02 |  | 24.7 ± 2.2 | 54.5 ± 1.8 % of control | 80.5 ± 2.0 % of control | 99.7 ± 5.7 % of control | 115.0 ± 8.6 |  |  |  |  |  | 
11 | SDSRKSSGDGPDLR [BO58-11, 18] | 908 ± 56 counts | 14.7 ± .94 |  | 89.2 ± 6.2 | 98.4 ± 1.9 % of control | 102.6 ± 4.1 % of control | 99.7 ± 2.8 % of control | 119.2 ± 3.4 |  |  |  |  |  | 
12 | SSPRPEQHKSYKIRFNSVSCSDPLVSSWRRKRKESS [JX2, 14] | 1356 ± 46 counts | 13.1 ± .11 | 7.7 ± .11 |  |  |  |  |  | 0.0 ± 7.4 | 30.4 ± 1.7 % of control | 57.2 ± 7.5 % of control | 62.2 ± 2.8 % of control | 116.3 ± 1.9 | 3.2 ± .11
13 | WRRKRK [BO58-07, 12] | 1749 ± 40 counts | 13.6 ± .31 |  | 6.7 ± 3.6 | 11.0 ± 3.3 % of control | 24.0 ± 2.8 % of control | 91.1 ± 5.7 % of control | 91.7 ± 5.1 |  |  |  |  |  | 
